Laboratory results as given in patent US20220125947A1.
Changes are numbered by the printed parent chain.

B1: VG9B136 (antibody, human IgG1, kappa, V domains shown)
VH: QVQLQQSGPGLVKPSQTLSLTCAISGDSVSSNRAAWNWIRQSPSKGLEWLGRTYYRSKWYNEYAASVKSRMSINPDTSKNQFSLQLNSVTPEDTALYYCARDLWELREACDIWGQGTMVTVSS
VL: DIVMTQSPSFLSTFVGDRVTITCRASQGISSYLAWYQQKPGKVPKLLIYVASTLQSGVPSRFSGSGSGTEFTLTISSLQPEDFATYYCQQLNSYPFTFGPGTKVDIKR
B2: VG9B41 (antibody, human IgG1, kappa, V domains shown)
VH: QVQLQESGPQLVRPGASVKISCKASGYSFTTYWMHWVKQRPGQGLEWIGLIDPSDSETRLNQKFKDKATLTVDKSSSTAYMRLSSPTSEDSAVYYCASNRWLLGWGQGTMVTVSS
VL: EIVLTQTPLSSPVTLGQPASISCRSSQSLVHSDGNTYLSWLHQRPGQPPRLLIYKISNRFSGVPDRFSGSGAGTDFTLKISRVETEDVGVYYCVQTREFPLTFGGGTKVEIKR
B3: VG9B189 (antibody, human IgG1, lambda, V domains shown)
VH: EVQLVQSGGGLVKPGASLKLSCAASGFTFSNHGMSWVRQTSDKRLEWVASITRGGDTTYYPDNVKGRFTISRENAKNTLYLQMSSLKSDDTALYYCTRGPLTVGYAMDYWGQGTTVTVSS
VL: QSVVTQPPSASGSPGQSVTISCTGTSSDVGGYNYVSWYQQHPGKAPKLMIYEVSKRPSGVPDRFSGSKSGNTASLTVSGLQAEDEADYYCNSYAGSNNFEVFGGGTKVTVLG
B4: VG9B144 (antibody, human IgG1, lambda, V domains shown)
VH: QVQLVQSGAEVKKPGASVKVSCKASGYTFTGYYMHWMRQAPGQGLEWMGWINPNSGATNKEQKFQGRVTMTRDTSISTAYMELSRLRSDDTAVYYCAREDDAFDVWGQGTMVTVSS
VL: SSELTQDPAVSVALGQTVRITCQGDNLRNYYATWFQQKPGQAPVLVFFGKNNRPSGIPDRFSGSSSGDTASLTITGAQAEDEADYYCNSRDSSGNHVVFGGGTKLTVLG
B5: VG9B386 (antibody, human IgG1, kappa, V domains shown)
VH: EVQLVESGGGLVKPGGSLRLSCAASGFTFSSYSMIWVRQAPGKGLEWVSSIGSSSTYIYYADSVRGRFTISRDNAKTSLYLQMNSLRAEDTAMYFCARDGETGGFDYWGQGILVTVSS
VL: EIVMTQSPGTLSLSPGERATLSCRASQSISRSYLAWYQQKPGQPPRLLIYGPSNRATGIPDRFSASGSGTDFTLTNSRLEPEDFAVYYCQQYGSLPLTFGGGTKVEIKR
B6: VG9B112 (antibody, human IgG1, kappa, V domains shown)
VH: QVQLQQSGPGLVKPSQTLSLTCAISGDSVSSNSAAWNWIRQSPSRGLEWLGGTYYRSKWFNNYAVSVKSRITINPDTSTNQFSLQLNSVTPADTAVYYCARGEWGLRDAFDIWGQGTMVTVSS
VL: B1 VL with V3Q, T13A, F14S, T20I, S30H, F96W, P100Q, V104L, D105E
B7: VG9B152 (antibody, human IgG1, lambda, V domains shown)
VH: EVQLVESGGGLVRPGGSLRLSCEASGFTFSSYSMIWVRQAPGKGLEWVSSISSSSDYIYNADSVKGRFTISRDNAKNSLYLQMNSLRAEDTAVYYCARDWELLGFDCWGQGTTVTVSS
VL: SYELMQPPSVSVSPGQTASITCSGDKLGDKYACWYQQKPGQSPVLVIYQHNKRPSGIPERFSGSNSGKTATLTISGTQAMDEADYYCQAWDSTTVVFGGGTKLTVLG
B8: VG9B57 (antibody, human IgG1, kappa, V domains shown)
VH: EVQLVESGGGLVKPGGSLRLSCAASGFTFSSHDMNWVRQAPGKGLGWVSSISSSSSYIFYADSVKGRFTISRDNAKNSLYLQMSSLRAEDTAVYYCARDLGVGVRDYYYYGMDVWGQGTMVTVSS
VL: DIQMTQSPSAMSASVGDRVTITCRASQDITNYLAWFQQKPGKVPKRLIYAASSLQGGVPSRFSGSGSGTEFTLTISSLQPEDFSTYYCLQHDTYPYTFGQGTKLEIKR
B9: VG9B162 (antibody, human IgG1, lambda, V domains shown)
VH: B4 VH with Q6E, K12T, Y32D, M37V, A57Y, K60Y, E61A, D100G
VL: B3 VL with S2L, V4L, P7S, P8S, V108L
B10: VG9B409 (antibody, human IgG1, kappa, V domains shown)
VH: EVQLVESGAEVKKPGASVKVSCKASGYTLTSYYMHWVRQAPGQGLEWMGIINPSGGSTSYAQKFQGRVTMTRDTSTSTVYMELSSLRSEDTAVYYCARGSYGWYFDLWGRGTLVTVSS
VL: EIVLTQSPGTLSLSPGERATLSCRASQSVTSSYLAWYQQKPGQTPRLLIYGASSRATGIPDRISGSGSGTDFTLTVSRLEPEDFAVYYCQQYGSSPPYTFGQGTKLEIKR
B11: VG9B60 (antibody, human IgG1, kappa, V domains shown)
VH: QVQLVQSGAEVKKPGASVKVSCKASGYTFTGYYMHWVRQAPGQGLEWMGRINPNSGVTHYAQKFQGRVTMTRDTSISTAYMELSRLRSDDTAVYYCARGGSLVRGVISGLDYWGQGTTVTVSS
VL: DIVMTQSPGTLSLSPGERATLSCRASQSFSGSYLAWYQQKPGQAPSLLIYGASSRATGIPDRFSGSGSGTDFTLTISRLEPEDFALYYCQQYGSSPPYTFGQGTKVEIKR
B12: VG9B67 (antibody, human IgG1, kappa, V domains shown)
VH: EVQLVESGGGLVKPGGSLRLSCAASGFTFSSYTMNWVRQAPGKGLEWVSSISSSSSYIDYAESVKGRFTISRDNAKNSLYLQMNSLRAEDTAVYYCARDGDILATIRGSFDYWGQGTTVTVSS
VL: DIVMTQTPLSLPVTPGEPASISCRSSQSLLDSDAGNTYLDWYLQKPGQSPQLLIYTLSYRASGVPDRFSGSGSGTDFTLKISRVEAEDVAIYYCMQRIEFPITFGQGTKVEIKR
B13: VG9B66 (antibody, human IgG1, kappa, V domains shown)
VH: B12 VH with S31T, S56F, I58M, E62D, Y80S, Q82L, L103V, T118M
VL: EIVLTQSPSSLSTSVGDRVTITCRASQDITNFLAWYQQKPGKLPKLLIYTASTLQSGVPSRFSGSASGPDFTLTISSLQPEDVATYYCQKYNSAPFTFGPGTKVEIKR
B14: VG9B127 (antibody, human IgG1, kappa, V domains shown)
VH: B12 VH with E1Q, A23T, S30G, S31A, Y60F, N84I, L103V, A104S, T117A, T118L
VL: B12 VL with D1E, T7S, A34D, A90G
B15: VG9B191 (antibody, human IgG1, lambda, V domains shown)
VH: EVQLVQSGGGLVKPGGSLRLSCAASGFTFSRYSMNWVRQAPGKGLEGVSSISSSSSYIYYADSVKGRFTISRDNAKNSLYLQMNSLRAEDTAVYYCARDGPTVNWDYYFDLWGRGTLVTVSS
VL: QSVLTQPPSVSAAPGQKVTISCSGSSSNIGNNYVSWYQQLPGTAPKLLIYDNNKRPSGIPDRFSGSKSGTSATLGITGLQTGDEADYYCGTWDSSLSTSVVFGGGTKLTVLG
B16: VG9B44 (antibody, human IgG1, kappa, V domains shown)
VH: QVQLQQSGPGLVKPSQTLSLTCAISGDSVSSNSAAWNWIRQSPSRGLEWLGRTYYRSKWYNDYPISVKSRISINPDTSKNQFSLQLNSVTPEDTAVYYCARESGSYYTDGFDIWGQGTMVTVSS
VL: DIQMTQSPSFLSASVGDRVTITCRASQGISSYLAWYQQKPGKAPKLLIYAASTLQSGVPSRFSGSGSGTEFTLTISSLQPEDFATYYCQEFNSYPYTFGQGTKLEIKR
B17: VG9B33 (antibody, human IgG1, kappa, V domains shown)
VH: EVQLVESGGGLVKPGGSLRLSCAASGFTFSSYNMNWVRQAPGKGLEWVSSISTSSSYIYYADSVKGRFTISRDNAKNSLYLQMNGLRAEDTAVYYCARDTSVTKYPDTFDIWGQGTMVTVSS
VL: DIVMTQSPSSLSASVGDRVTITCRASQDINNYLAWFQQKPGKVPNLLIYGASTLQSGVPSRFTGSGSGTDFTLTISSLQPEDVATYYCQKYNSAPFTFGPGTKVDIKR
B18: VG9B21 (antibody, human IgG1, kappa, V domains shown)
VH: EVQLLESGGGLVKPGGSLRLSCAASGFSFSNYDMNWVRQAPRKGLEWVSSISSSSHYIYYADSLKGRFTISRDNAKNSLFLQMNSLRAEDTAVYYCARDRGVTTDYYYYALDVWGQGTMVTVSS
VL: DIVMTQSPSSLSASVGDRVTITCRASQGIYNYLAWYQQKPGNVPKLLIYAASTLQSGVPSRFSGSGSGTDFSLTISSLQPEDFTTYYCQKYNRAPFTFGPGTKVDIKR

The binders below were run against Vg9/Vd2 TCR on SKW3_4 cells (UniProt Q99603) (assay: flow cytometry DRC binding 37 C, SKW3_4 cells expressing Vg9/Vd2).
Chain of Vg9/Vd2 TCR on SKW3_4 cells (Q99603 21-122, chain 1 of 2): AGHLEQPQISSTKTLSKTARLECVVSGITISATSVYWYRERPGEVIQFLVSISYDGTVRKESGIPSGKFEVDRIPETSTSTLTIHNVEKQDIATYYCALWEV
Chain of Vg9/Vd2 TCR on SKW3_4 cells (A0JD36 20-115, chain 2 of 2, further chain): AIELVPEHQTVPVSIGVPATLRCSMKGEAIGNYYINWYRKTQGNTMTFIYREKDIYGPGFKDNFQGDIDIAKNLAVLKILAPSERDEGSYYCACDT

| Max. Activity (fold over background) | Binder |
| --- | --- |
| 181 | B1 |
| 11.4 | B2 |
| 46.1 | B3 |
| 123 | B4 |
| 211 | B5 |
| 227 | B6 |

Each binder was assayed against Vg5/Vd2 TCR on SKW3 cells (UniProt A0JD36) (assay: flow cytometry DRC binding 37 C, SKW3 cells expressing Vg5/Vd2).
Chain of Vg5/Vd2 TCR on SKW3 cells (A0JD36 20-115): as the sequence (A0JD36 20-115, chain 2 of 2, further chain) above

| Max. Activity (fold over background) | Binder |
| --- | --- |
| 226 | B1 |
| 16.1 | B2 |
| 21.5 | B3 |
| 194 | B4 |
| 92.7 | B5 |
| 217 | B6 |

What follows are binders tested against Vg9/Vd1 TCR on SKW3 cells (UniProt Q99603) (assay: flow cytometry, dose-response binding at 37° C. on SKW3 cells expressing Vg9/Vd1).
Chain of Vg9/Vd1 TCR on SKW3 cells (Q99603 21-122): as the sequence (Q99603 21-122, chain 1 of 2) above

| Max. Activity (fold over background) | Binder |
| --- | --- |
| 352 | B7 |
| 75.9 | B8 |
| 249 | B9 |
| 408 | B10 |
| 40.6 | B11 |
| 318 | B12 |
| 179 | B13 |
| 318 | B14 |
| 381 | B15 |
| 375 | B16 |
| 377 | B17 |
| 121 | B18 |

These binders were tested against Vg9/Vd2 TCR on SKW3_4 cells (UniProt Q99603) (assay: flow cytometry, dose-response binding at 37° C. on SKW3_4 cells expressing Vg9/Vd2).

| Max. Activity (fold over background) | Binder |
| --- | --- |
| 141 | B7 |
| 30.8 | B8 |
| 96.3 | B9 |
| 176 | B10 |
| 16.7 | B11 |
| 128 | B12 |
| 33.9 | B13 |
| 91.9 | B14 |
| 156 | B15 |
| 170 | B16 |
| 173 | B17 |
| 39.7 | B18 |

The binders below were run against Vg5/Vd2 TCR on SKW3 cells (UniProt A0JD36) (assay: flow cytometry, dose-response binding at 37° C. on SKW3 cells expressing Vg5/Vd2).

| Max. Activity (fold over background) | Binder |
| --- | --- |
| 1.64 | B7 |
| 1.04 | B8 |
| 2.44 | B9 |
| 8.45 | B10 |
| 1.42 | B11 |
| 1.14 | B12 |
| 1.04 | B13 |
| 1.78 | B14 |
| 17.2 | B15 |
| 2.13 | B16 |
| 2.85 | B17 |
| 1.86 | B18 |

The binders below were run against Vg9/Vd1 TCR on SKW3 cells (UniProt Q99603) (assay: flow cytometry DRC binding 37 C, SKW3 cells expressing Vg9/Vd1).

| Max. Activity (fold over background) | Binder |
| --- | --- |
| 288 | B1 |
| 2.18 | B2 |
| 1.46 | B3 |
| 205 | B4 |
| 389 | B5 |
| 328 | B6 |
